Reference: publication PMC3477848 (Biochemistry, 2012)
Where two headings read alike, the source gives them in different places.

Experiments:
Experiment in all cases: fluorescence anisotropy
[1] = biological target: T1, Dpo4 (SsoDpo4, Y-family DNA polymerase) (Sulfolobus solfataricus, UniProt Q97W02 1-352)
T1 sequence: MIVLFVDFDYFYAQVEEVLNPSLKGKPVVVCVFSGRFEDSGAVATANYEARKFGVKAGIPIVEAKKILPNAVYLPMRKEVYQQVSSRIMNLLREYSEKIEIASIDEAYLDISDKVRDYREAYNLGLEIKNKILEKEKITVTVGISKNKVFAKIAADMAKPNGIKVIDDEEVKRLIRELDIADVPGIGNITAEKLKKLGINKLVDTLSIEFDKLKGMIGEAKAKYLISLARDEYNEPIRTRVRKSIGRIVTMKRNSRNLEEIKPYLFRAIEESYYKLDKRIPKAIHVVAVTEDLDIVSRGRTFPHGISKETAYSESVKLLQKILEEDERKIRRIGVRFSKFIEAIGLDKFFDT

[2] = biological target: T2, Dpo1 exo- (SsoDpo1, B-family DNA polymerase) (Sulfolobus solfataricus, UniProt P26811 1-882, D231A;D318A)
T2 sequence: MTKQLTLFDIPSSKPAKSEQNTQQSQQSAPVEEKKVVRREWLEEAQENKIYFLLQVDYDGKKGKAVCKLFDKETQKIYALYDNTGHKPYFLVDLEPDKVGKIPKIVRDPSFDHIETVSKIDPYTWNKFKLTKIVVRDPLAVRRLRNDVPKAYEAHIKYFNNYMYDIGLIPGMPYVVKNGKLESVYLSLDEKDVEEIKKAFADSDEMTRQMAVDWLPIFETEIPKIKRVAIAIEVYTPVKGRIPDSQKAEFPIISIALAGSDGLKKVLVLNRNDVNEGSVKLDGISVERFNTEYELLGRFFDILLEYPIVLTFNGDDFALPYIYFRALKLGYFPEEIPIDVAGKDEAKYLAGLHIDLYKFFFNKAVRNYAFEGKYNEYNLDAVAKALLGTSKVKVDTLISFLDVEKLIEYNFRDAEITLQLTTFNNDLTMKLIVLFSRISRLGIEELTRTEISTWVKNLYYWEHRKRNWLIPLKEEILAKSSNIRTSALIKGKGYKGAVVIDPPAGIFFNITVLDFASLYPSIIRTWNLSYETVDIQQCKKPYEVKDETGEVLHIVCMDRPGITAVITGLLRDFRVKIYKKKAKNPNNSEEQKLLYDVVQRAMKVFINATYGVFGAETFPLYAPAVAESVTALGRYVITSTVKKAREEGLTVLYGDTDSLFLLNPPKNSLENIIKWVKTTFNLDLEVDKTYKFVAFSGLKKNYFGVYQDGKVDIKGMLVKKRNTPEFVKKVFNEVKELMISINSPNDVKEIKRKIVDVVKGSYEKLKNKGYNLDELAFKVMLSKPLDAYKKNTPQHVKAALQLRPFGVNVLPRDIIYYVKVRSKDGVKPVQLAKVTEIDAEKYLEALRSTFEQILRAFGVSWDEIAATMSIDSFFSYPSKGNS

[3] = biological target: T2, Dpo1 exo- (SsoDpo1, B-family DNA …); remark: listed apart in the source
[4] = biological target: T1, Dpo4 (SsoDpo4, Y-family DNA polymerase); remark: listed apart in the source
[5] = biological target: T2, Dpo1 exo- (SsoDpo1, B-family DNA …); remark: listed apart in the source
[6] = biological target: T1, Dpo4 (SsoDpo4, Y-family DNA polymerase); remark: listed apart in the source
[7] = biological target: T2, Dpo1 exo- (SsoDpo1, B-family DNA …); remark: listed apart in the source
[8] = biological target: T1, Dpo4 (SsoDpo4, Y-family DNA polymerase); remark: listed apart in the source

Work on TTTTTTTTTTCCCGGGCCGGCGTTTCGCCGGCCCGGG (structured_DNA) [37-nt hairpin primer-template, 5'-Cy3] yielded a Kd [1] of 130 ± 4 nM, a Kd [2] of 208 ± 57 nM and a Kd [3] of 144 ± 3 nM. For the same binder, the Kd [4] was 674 ± 80 nM, the Kd [5] was 170 ± 23 nM and the Kd [6] was 214 ± 3 nM. For the same binder, the Kd [7] was 322 ± 23 nM and the Kd [8] was 435 ± 116 nM.
